This passage reports self-cleavage results from the RNAGym collection of RNA variant scans (doi:10.7554/elife.90254).

To fix the notation:
B1: OR4K15 (parent)
chain: GUUAACGGUCAUAGGCCAUGGAAACUAGGAGCACCAUUUCGCUGCCAGUGAAGAAAUGAACAAAGAAAAUCUGGGCCAGGCAGGCAUCAAAAGAAAUAGUCUUGCGCUCAACCAGAAAGUCUGUAAUCAUUUUAAGGGUA

Variants of B1 are the subject of the series. Kind of series: self-cleavage, relative activity (ratio to wild type); higher = more cleavage; in vitro, sequencing; the parent is a self-cleaving ribozyme.
In the case of GUUAACGGUCAUAGGCCAUGGAAACUAGGUGCACCAUUUCGCUGCCAGCGAAGAAAUGAACAAAGAAAAUCUGGGCCAGGCAGGCAUCAAAAGAAAUAGUCUUGCGCUCAACCAGAAAGUCUGUAAUCAUUUUAAGGGUA, the self-cleavage amounted to 1.48.
The result for GUUAACGGUCAUAGGCCAUGGAAACUAGGUGCACCAUUUCGCUGCCAGAGAAGAAAUGAACAAAGAAAAUCUGGGCCAGGCAGGCAUCAAAAGAAAUAGUCUUGCGCUCAACCAGAAAGUCUGUAAUCAUUUUAAGGGUA reads 1.3.
Regarding GUUAACGGUCAUAGGCCAUGGAAACUAGGUGCACCUUUUCGCUGCCAGUGAAGAAAUGAACAAAGAAAAUCUGGGCCAGGCAGGCAUCAAAAGAAAUAGUCUUGCGCUCAACCAGAAAGUCUGUAAUCAUUUUAAGGGUA, the self-cleavage came out at 1.67.
Turning to GUUAACGGUCAUAGGCCAUGGAAACUAGGUGCACCAUUUCGCUGCCAGUGAAGAAAUGAACAAAGAAAAUCUGGGCCAGGCAGGCAUCAAAAAAAAUAGUCUUGCGCUCAACCAGAAAGUCUGUAAUCAUUUUAAGGGUA, the self-cleavage was determined as 1.63.
In the case of GUUAACGGUCAUAGGCCAUGGAAACUAGGGGCACCAUUUCGCUGCCAGUGAAGAAAUGAACAAAGAAAAUCUGGGCCAGGCAGGCAUCAAAAGAAAUAGUCUUGCGCUCAACCAGAAAGUCUGUAAUCAUUUUAAGGGCA it was 1.03.
As to GUUAACGGUCAUAGGCCAUGGAAACUAGGUGCACCAUUUCGCUGCCAGUGGAGAAAUGAACAAAGAAAAUCUGGGCCAGGCAGGCAUCAAAAGAAAUAGUCUUGCGCUCAACCAGAAAGUCUGUAAUCAUUUUAAGGGUA, the self-cleavage worked out at 1.55.
For the variant GUUAACGGUCAUAGGCCAUGGAAACUAGGUGCACCAUUUCGCUGCCAGUGAAGAAAUGAACAAAGAAAAUCUGGGCCAGGCAGGCGUCAAAAGAAAUAGUCUUGCGCUCAACCAGAAAGUCUGUAAUCAUUUUAAGGGUA, the self-cleavage was 1.87.
The result for GUUAACGGUCAUAGGCCAUGGAAACUAGGUGCACCAUUACGCUGCCAGUGAAGAAAUGAACAAAGAAAAUCUGGGCCAGGCAGGCAUCAAAAGAAAUAGUCUUGCGCUCAACCAGAAAGUCUGUAAUCAUUUUAAGGGUA reads 2.07.
Take GUUAACGGUCAUAGGCCAUGGAAACUAGGUGCACCAUUCCGCUGCCAGUGAAGAAAUGAACAAAGAAAAUCUGGGCCAGGCAGGCAUCAAAAGAAAUAGUCUUGCGCUCAACCAGAAAGUCUGUAAUCAUUUUAAGGGUA: the self-cleavage worked out at 0.9.
In the case of GUUAACGGUCAUAGGCCAUGGAAACUAGGUGCACCAUUUCGCUGCCAGUGAAGAAAUGAACAAAGAAAAUCUGGGCCAGGCAGGCAUCAAAAGAAAUAGUCUUGCGCUCAACCAGAAAGUCUGUAAUCAUUUUAAGGGUA, the self-cleavage worked out at 1.24.
The result for GUUAACGGUCAUAGGCCAUGGAAACUAGGUGCACCAUUUCGCUGCCUGUGAAGAAAUGAACAAAGAAAAUCUGGGCCAGGCAGGCAUCAAAAGAAAUAGUCUUGCGCUCAACCAGAAAGUCUGUAAUCAUUUUAAGGGUA reads 0.19; that for GUUAACGGUCAUAGGCCAUGGAAACUAGGUGCACCAUUUCGCUGCCAGUGAAGAAAUGAACAAAGAAAAUCUGGGCCAGGCAGGCAUCAAGAGAAAUAGUCUUGCGCUCAACCAGAAAGUCUGUAAUCAUUUUAAGGGUA, 1.35.
The result for GUUAACGGUCAUAGGCCAUGGAAACUAGGUGCACCAUUUCGCUGCCAGUGAAGAAAUGAACAAAGAAAACCUGGGCCAGGCAGGCAUCAAAAGAAAUAGUCUUGCGCUCAACCAGAAAGUCUGUAAUCAUUUUAAGGGUA reads 0.71; that for GUUAACGGUCAUAGGCCAUGGAAACUAGGUGCACCAUUUCGCUGCCAGUGAAGAAAUGAACAAAGAAAAACUGGGCCAGGCAGGCAUCAAAAGAAAUAGUCUUGCGCUCAACCAGAAAGUCUGUAAUCAUUUUAAGGGUA, 1.71.
The result for GUUAACGGUCAUAGGCCAUGGAAACUAGGUGCACCAUUUCGCUGCCAGUGAAGAAAUGAACAAAGAAAAUCUGGGCCAGGCAGGCAUCAAAAGAAAUAGUCUUGCGCUCAACCAGAAAGUCUGUAAUCUUUUUAAGGGUA reads 0.63.
As to GUUAACGGUCAUAGGCCAUGGAAACUAGGUGCACCAUUUCGCUGCCAGUGAAGAAAUGAACAAAGAAAAUCUGGGCCAGGCAGGCAUCAAAAGAAAUAGUCUUGCGCUCAACCAGAAAGUCUGUAAUCGUUUUAAGGGUA, the self-cleavage turned out to be 1.24.
The result for GUUAACGGUCAUAGGCCAUGGAAACUAGGUGCACCAUUUCGCUGCCAGUGAAGAAAUGAACAAAGAAAAUCUGGGCCAGGCAGGCAUCAAAAGAAAUAGUCUUGCGAUCAACCAGAAAGUCUGUAAUCAUUUUAAGGGUA reads 0.01; that for GUUAACGGUCAUAGGCCAUGGAAACUAGGUGCACCAUUUCGCUGCCAGUGAAGAAAUGAACAAGGAAAAUCUGGGCCAGGCAGGCAUCAAAAGAAAUAGUCUUGCGCUCAACCAGAAAGUCUGUAAUCAUUUUAAGGGUA, 1.56.
The result for GUUAACGGUCAUAGGCCAUGGAAACUAGGUGCACCAUUUCGCUGCCAGUGAGGAAAUGAACAAAGAAAAUCUGGGCCAGGCAGGCAUCAAAAGAAAUAGUCUUGCGCUCAACCAGAAAGUCUGUAAUCAUUUUAAGGGUA reads 1.08; that for GUUAACGGUCAUAGGCCAUGGAAACUAGGUGCACCAUUUCGCUGCCAGUGAAGAAAUGAACAAAGAAAAUCUGGGCCAGGCGGGCAUCAAAAGAAAUAGUCUUGCGCUCAACCAGAAAGUCUGUAAUCAUUUUAAGGGUA, 0.52; that for GUUAACGGUCAUAGGCCAUGGAAACUAGGUGCACCAUUUCGCUGCCAGUGAAGAAGUGAACAAAGAAAAUCUGGGCCAGGCAGGCAUCAAAAGAAAUAGUCUUGCGCUCAACCAGAAAGUCUGUAAUCAUUUUAAGGGUA, 0.82.
In the case of GUUAACGGUCAUAGGCCAUGGAAACUAGGUGCACCAUUUCGCUGCCAGUGAAGAAAUGAACAAAGAAAAUCUGGGCCAGGCAGGCAUCAAAAGAAAUAGUCUUGCGCUCAACCUGAAAGUCUGUAAUCAUUUUAAGGGUA it was 0.11.
Consider GUUAACGGUCAUAGGCCAUGGAAACUAGGUGCACCAUUUCGCUGCCAGUGAAGAAAUGAACAAAGAAAAUCUGGGCCAGGCAGGCAUCAAAAGAAAUAGUCUUGCGCUCAACCAGAAAGUCUGUAAUCAUUUUAAGGAUA, for which the self-cleavage is 2.22.
In the case of GUUAACGGUCAUAGGCCAUGGAAACUAGGUGCACCAUUUCGCUGCCAGUGAAGAAAUGAACAAAGAAAAUCUGGGCCAGGCAGGCAUCAAAAGAAAUAGUCUUGCGCUCAACCAGAAGGUCUGUAAUCAUUUUAAGGGUA it was 1.45; in that of GUUAACGGUCAUAGGCCAUGGAAACUAGGUGCACCAUUUCGCCGCCAGUGAAGAAAUGAACAAAGAAAAUCUGGGCCAGGCAGGCAUCAAAAGAAAUAGUCUUGCGCUCAACCAGAAAGUCUGUAAUCAUUUUAAGGGUA, 1.88; in that of GUUAACGGUCAUAGGCCAUGGAAACUAGGUGCACCAUUUCGCUGCCAGUGAAGAGAUGAACAAAGAAAAUCUGGGCCAGGCAGGCAUCAAAAGAAAUAGUCUUGCGCUCAACCAGAAAGUCUGUAAUCAUUUUAAGGGUA, 1.55.
The result for GUUAACGGUCAUAGGCCAUGGAAACUAGGUGCACCAUUUCGCUGCCAGUGAAGAAAUGAGCAAAGAAAAUCUGGGCCAGGCAGGCAUCAAAAGAAAUAGUCUUGCGCUCAACCAGAAAGUCUGUAAUCAUUUUAAGGGUA reads 0.45.
In the case of GUUAACGGUCAUAGGCCAUGGAAACUAGGUGCACCAUCUCGCUGCCAGUGAAGAAAUGAACAAAGAAAAUCUGGGCCAGGCAGGCAUCAAAAGAAAUAGUCUUGCGCUCAACCAGAAAGUCUGUAAUCAUUUUAAGGGUA it was 1.69.
Regarding GUUAACGGUCAUAGGCCAUGGAAACUAGGUGCACCAUUUCGCUGCCAGUGAAGAAAUGAACAAAGAAAAUCUGGGCUAGGCAGGCAUCAAAAGAAAUAGUCUUGCGCUCAACCAGAAAGUCUGUAAUCAUUUUAAGGGUA, the self-cleavage is 1.77.
In the case of GUUAACGGUCAUAGGCCAUGGAAACUAGGUGCACCAUUUCGCUGCCAGUGAAGAAAUGGACAAAGAAAAUCUGGGCCAGGCAGGCAUCAAAAGAAAUAGUCUUGCGCUCAACCAGAAAGUCUGUAAUCAUUUUAAGGGUA it was 0.34.
Take GUUAACGGUCAUAGGCCAUGGAAACUAGGUGCACCAUUUCGCUGCCAGUGAAGAAAUGAACAAAGAAAAUCUGGGCCAGGCAGGCAUCAAAAGAAAUAGUCUUGCGCUCGACCAGAAAGUCUGUAAUCAUUUUAAGGGUA: the self-cleavage was determined as 0.1.
GUUAACGGUCAUAGGCCAUGGAAACUAGGUGCACCAUUUCGCUGCCAGUGAAGAAAUGAACAAAGAAAAUCUGGGCCAGGUAGGCAUCAAAAGAAAUAGUCUUGCGCUCAACCAGAAAGUCUGUAAUCAUUUUAAGGGUA: the self-cleavage came to 0.51.
The result for GUUAACGGUCAUAGGCCAUGGAAACUAGGUGCACCACUUCGCUGCCAGUGAAGAAAUGAACAAAGAAAAUCUGGGCCAGGCAGGCAUCAAAAGAAAUAGUCUUGCGCUCAACCAGAAAGUCUGUAAUCAUUUUAAGGGUA reads 0.84.
In the case of GUUAACGGUCAUAGGCCAUGGAAACUAGGUGCACCAUUUCGCUGCCAGUGAAGAAAUGAACAAAGAAUAUCUGGGCCAGGCAGGCAUCAAAAGAAAUAGUCUUGCGCUCAACCAGAAAGUCUGUAAUCAUUUUAAGGGUA it was 1.5; in that of GUUAACGGUCAUAGGCCAUGGAAACUAGGUGCACCAUUUCGCUGCCAGUGAAGAAAUGAACAAAGAAAAUCUGGGCCAGGCAGGCAUCAAAAGAAAUAGUCUUGCGCUCAACCAGGAAGUCUGUAAUCAUUUUAAGGGUA, 1.27.
In the case of GUUAACGGUCAUAGGCCAUGGAAACUAGGUGCACCAUUUCGCUGCCAGUGAAGAAAUGAACAGAGAAAAUCUGGGCCAGGCAGGCAUCAAAAGAAAUAGUCUUGCGCUCAACCAGAAAGUCUGUAAUCAUUUUAAGGGUA it was 2.01; in that of GUUAACGGUCAUAGGCCAUGGAAACUAGGUGCACCAUUUCGCUGCCAGUGAAGAAAUGAACAAAGAAAAUCUGGGCCAGGCAGGCAUCAAAAGAAAUAGUCUUGCGCUCAACCAGAAAGUCUGUAAUCAUUUUAAGGGUG, 0.96; in that of GUUAACGGUCAUAGGCCAUGGAAACUAGGUGCGCCAUUUCGCUGCCAGUGAAGAAAUGAACAAAGAAAAUCUGGGCCAGGCAGGCAUCAAAAGAAAUAGUCUUGCGCUCAACCAGAAAGUCUGUAAUCAUUUUAAGGGUA, 0.69.
For GUUAACGGUCAUAGGCCAUGGAAACUAGGUGCACCAUUUCGCUGCCAGUGAAGCAAUGAACAAAGAAAAUCUGGGCCAGGCAGGCAUCAAAAGAAAUAGUCUUGCGCUCAACCAGAAAGUCUGUAAUCAUUUUAAGGGUA, the self-cleavage is 1.77.
In the case of GUUAACGGUCAUAGGCCAUGGAAACUAGGUGCACCAUUUCGCUGCCAGUGAAGAAAUGAACAAAGAAAAUCUGGGCCAGGCAGGCAUCAAAAGAAAUAGUCUUGCGCUCAACCAAAAAGUCUGUAAUCAUUUUAAGGGUA it was 0.22.
In the case of GUUAACGGUCAUAGGCCAUGGAAACUAGGUGCACCAUUUCGCUGCCAGUGAAGAAAUGAACAAAGAAAAUCUGGGCCAGGCAGGCAUCAAAAGAAAUAGUCUUGCGCUCAACUAGAAAGUCUGUAAUCAUUUUAAGGGUA it was 0.04.
